Reference: patent US8772007 (dated 2014)

B1: S279_M70aE8 metagenomic GDSL-type esterase (enzyme)
chain: MPKIAKLAPSDVIVAFGDSLTFGTGATEAESYPIVLAQLIGRTVVRAGVPGEVTEGGLARLTDVIEEHKPKLIIVCLGGNDMLRKVQEDQTRANLRAIIKTIKAQGIAVVLVGVPKPALVTSAPPFYEEIAKEFGIPYEGKIVTDVLYQRDQKSDSIHPNAKGYRRMAEAIATLLKKSGAI
B2: Sinorhizobium meliloti SmeII (Q92XZ1) (enzyme)
chain: MEETVARTVLCFGDSNTHGQVPGRGPLDRYRREQRWGGVLQGLLGPNWQVIEEGLSGRTTVHDDPIEGSLKNGRTYLRPCLQSHAPLDLIIIMLGTNDLKRRFNMPPSEVAMGIGCLVHDIRELSPGRTGNDPEIMIVAPPPMLEDLKEWESIFSGAQEKSRKLALEFEIMADSLEAHFFDAGTVCQCSPADGFHIDEDAHRLLGEALAQEVLAIGWPDA
notes: Expressed in E. coli from pET26_SmeII; also called pET26_SmeII
B3: Moraxella bovis Mbo (AAK53448) (enzyme)
chain: KEFSQVIIFGDSLSDTGRLKDMVARKDGTLGNTLQPSFTTNPDPVWSSLFAQSYGKTASPNTPDNPTGTNYAVGGARSGSEVNWNGFVNVPSTKTQITDHLTATGGKADPNTLYAIWIGSNDLISASQATTTAEAQNAIKGAVTRTVIDIETLNQAGATTILVPNVPDLSLTPRAIYGESLMAGVQDKAKLASSLYNSGLFEALNQSTANIIPANTFALLQEATTNKEAFGFKNTQGVACQMPARTTGADDVASTSLACTKANLIENGANDTYAFADDIHPSGRTHRILAQYYRSIMDAPTHMGKLSGELVKTGSAHDRHVYRQLDRLSGSQHSIWANVYASDRTDPTTQIGLDVAGSSSHTGAYLSHQNQDYVLDDTLSSDVKTIGMGLYHRHDIGNVRLKGVAGIDRLSVDTHRHIDWEGTSRSHTADTTARRFHAGLQASYGIDMGKATVRPLIGVHAQKVKVNDMTESESTLSTAMRFGEQEQKSLQGEIGVDVAYPISPALTLTGGIAHAHEFNDDERTINATLTSIREYTKGFNTSVSTDKSHATTAHLGVQGQLGKANIHAGVHATHQDSDTDVGGSLGVRLMF
notes: Described as an outer membrane localized autotransporter protein; also called pET26_Mbo
B4: Sinorhizobium meliloti RSM02162 (G00355) (enzyme)
chain: MVEKRSVLCFGDSLTWGWIPVKESSPTLRYPYEQRWTGAMAARLGDGYHIIEEGLSARTTSLDDPNDARLNGSTYLPMALASHLPLDLVIIMLGTNDTKSYFHRTPYEIANGMGKLVGQVLTCAGGVGTPYPAPKVLVVAPPPLAPMPDPWFEGMFGGGYEKSKELSGLYKALADFMKVEFFAAGDCISTDGIDGIHLSAETNIRLGHAIADKVAALF
notes: Synthetic gene G00355, expressed in E. coli from pMC355rbs; also called pMC355rbs
B5: Sinorhizobium meliloti SmeI (SMa1993) (enzyme)
chain: MTINSHSWRTLMVEKRSVLCFGDSLTWGWIPVKGSSPTLRYPYEQRWTGAMAARLGDGYHIIEEGLSARTTSLDDPNDARLNGSTYLPMALASHLPLDLVIIMLGTNDTKSYFHRTPYEIANGMGKLVGQVLTCAGGVGTPYPAPKVLVVAPPPLAPMPDPWFEGMFGGGYEKSKELSGLYKALADFMKVEFFAAGDCISTDGIDGIHLSAETNIRLGHAIADKVAALF
B6: Mesorhizobium loti Mlo I (Q98MY5) (enzyme)
chain: MKTVLCYGDSLTWGYNAEGGRHALEDRWPSVLQAALGAGVQVIADGLNGRTTAFDDHLAGADRNGARLLPTVLTTHAPIDLIIFMLGANDMKPWIHGNPVAAKQGIQRLIDIVRGHDYPFDWPAPQILIVAPPVVSRTENADFKEMFAGGDDASKFLAPQYAALADEAGCGFFDAGSVAQTTPLDGVHLDAENTREIGKALTPIVRVMLEL
notes: Expressed in E. coli from pET26_Mlo; also called pET26_Mlo; pET26_MlO
B7: S261_M2aA12 metagenomic GDSL-type esterase (enzyme)
chain: MKNILAFGDSLTWGFVAGQDARHPFETRWPNALAAGLGGKARVIEEGQNGRTTVFDDAATFESRNGSVALPLLLISHQPLDLVIIMLGTNDIKFAARCRAFDASMGMERLIQIVRSANYMKGYKIPEILIISPPSLVPTQDEWFNDLWGHAIAESKLFAKHYKRVAEELKVHFFDAGTVAVADKTDGGHLDAVNTKAIGVALVPVVKSILAL
notes: Metagenomic clone; also called pET26_m2aA12
B8: Salmonella typhimurium Stm (AAC38796) (enzyme)
chain: FDSLTVIGDSLSDTGNNGRWTWDSGQNKLYDEQLAERYGLELSPSSNGGSNYAAGGATATPELNPQDNTADQVRQWLAKTGGKADHNGLYIHWVGGNDLAAAIAQPTMAQQIAGNSATSAAAQVGLLLDAGAGLVVVPNVPDISATPMLLEAVITAGLGAAAPPALKAALDALAEGATPDFASRQQAIRKALLAAAATVSSNPFIQQLLVEQLLAGYEAAAGQASALTDYYNQMEEKGLEQHGGNIARADINGLFKEILANPQAFGLTNTVGMACPPGVSASACSSAMPGFNASQDYVFADHLHPGPQVHTIIAQYIQSIIAAPVQATYLNQSVQSMAQGSRTTLDSRYQQLRQGENPVGSLGMFGGYSGGYQRYDNNEADGNGNHNNLTVGVDYQLNEQVLLGGLIAGSLDKQHPDDNYRYDARGFQAAVFSHLRAGQAWLDSDLHFLSAKFSNIQRSITLGALRRVEEGETNGRLSGASLTSGYDFVMVPWLTTGPMLQYAWDYSHVNGYSEKLNTSTSMRFGDQNAHSQVGSAGWRLDLRHSIIHSWAQINYRRQFGDDTYVANGGLKSTALTFSRDGKTQDKNWVDIAIGADFPLSATVSAFAGLSQTAGLSDGNQTRYNVGFSARF
notes: Described as an outer membrane localized autotransporter protein; also called Sty

Target: S279_M70aE8 metagenomic GDSL-type esterase
Experiment: self-association; Sephadex 200 sizing column, fractions assayed for pNB activity; standards 669 kDa 16 ml, 158 kDa 24 ml, 43 kDa 26 ml, 14 kDa 32 ml

Q: How did the elution volume turn out when B1 was run?
A: 32 mL

Target: the molecule itself
Experiment: as above

Q: How did the elution volume turn out when B2 was run?
A: 24 mL

Q: Which elution volume does the source give for B3 here?
A: 24 mL

Q: For B4, which elution volume is on record?
A: 24 mL

Q: B5 was tested. Which elution volume did it give?
A: 24 mL

Q: How did the elution volume turn out when B6 was run?
A: 24 mL

Q: How did the elution volume turn out when B7 was run?
A: 24 mL

Q: How did the elution volume turn out when B8 was run?
A: 24 mL
